# Source: the Human Domainome abundance scans (Beltran et al. 2025)
# ± gives the uncertainty stated by the source.
# B1: Cell division cycle and apoptosis regulator protein 1, residues 625 to 674; numbered along this chain, Q8IX12 (parent)
# chain: ISTPTHWSKLDPKTMKVNDLRKELESRALSSKGLKSQLIARLTKQLKVEE
# Variants of: B1
# Experiment: abundance fitness (aPCA) (normalised: wild type 0, dead -1); higher = more abundant; growth selection in yeast, the domain comes from the species named
# Conditions: Homo sapiens
row,Variant,abundance fitness
1,ISTPTHWSKLDPKTMKVNDLRKELESRALSSKGLKSQLAARLTKQLKVEE,-0.145 ± 0.042
2,ISTPTHWSKLDPKTMKVNDLRKELESVALSSKGLKSQLIARLTKQLKVEE,-0.678 ± 0.055
3,ISTPTHWSKLDPKTLKVNDLRKELESRALSSKGLKSQLIARLTKQLKVEE,-0.172 ± 0.034
4,ISTPTHWSKLDPKTMKVNDLRKELESRALSSKGLKSQLLARLTKQLKVEE,-0.183 ± 0.04
5,ISTPTHWSKLDPKTMDVNDLRKELESRALSSKGLKSQLIARLTKQLKVEE,-0.068 ± 0.057
6,ISTRTHWSKLDPKTMKVNDLRKELESRALSSKGLKSQLIARLTKQLKVEE,0.075 ± 0.039
7,ISTPTHWSKLDPKTMKVNDLRKELESRALSSKGLKSQLILRLTKQLKVEE,-0.095 ± 0.036
8,ISTPTHWSKLDPKTMKVNDLRKELESRALSSKKLKSQLIARLTKQLKVEE,-0.939 ± 0.071
9,ISTPTHWSKLDPKTMKVNDARKELESRALSSKGLKSQLIARLTKQLKVEE,-0.618 ± 0.035
10,ISTPTQWSKLDPKTMKVNDLRKELESRALSSKGLKSQLIARLTKQLKVEE,-0.062 ± 0.044
11,ISTPTHWKKLDPKTMKVNDLRKELESRALSSKGLKSQLIARLTKQLKVEE,-0.061 ± 0.052
12,ISTPTHWSKLDPKTMKVNDLRKELESRALSSKGLKSQLIARLKKQLKVEE,0.148 ± 0.055
13,ISTPTHWSKLDPKTMKVNMLRKELESRALSSKGLKSQLIARLTKQLKVEE,0.031 ± 0.033
14,ISTPTHWSKLDFKTMKVNDLRKELESRALSSKGLKSQLIARLTKQLKVEE,-0.762 ± 0.2
15,ISTPTHWSKLDPKTMKVNDLRKELESRALSSKGLKSQLIARLTKQLKHEE,-0.106 ± 0.07
16,ISTQTHWSKLDPKTMKVNDLRKELESRALSSKGLKSQLIARLTKQLKVEE,-0.108 ± 0.059
17,ISTPTHWSKLDPKTMKDNDLRKELESRALSSKGLKSQLIARLTKQLKVEE,-0.114 ± 0.048
18,ISTPTHWSKLDPKTMKVNDQRKELESRALSSKGLKSQLIARLTKQLKVEE,-0.621 ± 0.076
19,DSTPTHWSKLDPKTMKVNDLRKELESRALSSKGLKSQLIARLTKQLKVEE,-0.641 ± 0.3
20,ISTPTHWSKHDPKTMKVNDLRKELESRALSSKGLKSQLIARLTKQLKVEE,-0.701 ± 0.073
21,ISTPTHWSKLDPKTMKVNDLRKELESRALSSKGLKSSLIARLTKQLKVEE,-0.061 ± 0.035
22,ISTPTHWYKLDPKTMKVNDLRKELESRALSSKGLKSQLIARLTKQLKVEE,-0.173 ± 0.063
23,ISTPTHWSKLDPKTMKVNDLRKELESRALLSKGLKSQLIARLTKQLKVEE,-0.184 ± 0.029
24,ISTPTHWSKLDPKTMKVNDGRKELESRALSSKGLKSQLIARLTKQLKVEE,-0.89 ± 0.044
25,ISTPTHWSKLDPKTMKVNDLRKELESRALSSKGLKSQLIARLTKHLKVEE,-0.284 ± 0.073
26,ICTPTHWSKLDPKTMKVNDLRKELESRALSSKGLKSQLIARLTKQLKVEE,0.029 ± 0.047

row,Variant,abundance fitness
1,ISTPTHWSKLDPKTMKVNDLRKELESRALSSKGCKSQLIARLTKQLKVEE,-0.075 ± 0.043
2,ISTPTHWSKLDPKTMKVNDLRKELESRVLSSKGLKSQLIARLTKQLKVEE,-0.016 ± 0.033
3,ISTPTHWSKLDPKTMKVNDLRKELESRALSSKGLKSQLIYRLTKQLKVEE,0.219 ± 0.043
4,ISTPTHWSKLDPKTMKVNDLRKELESRALSSKGLKSQLIARLYKQLKVEE,-0.281 ± 0.082
5,ISTPTHWSKLDPKTMKVNDLRKELESRMLSSKGLKSQLIARLTKQLKVEE,0.072 ± 0.036
6,ISTPTHWSKLDPKTMKVNDLRKELESRALSSKGLKSMLIARLTKQLKVEE,-0.042 ± 0.034
7,ISTPTHWSKLDPKTMKVNDLRKELESRALSSKGLKSQLIARYTKQLKVEE,-0.845 ± 0.081
8,ISTPTHWSKLLPKTMKVNDLRKELESRALSSKGLKSQLIARLTKQLKVEE,-0.054 ± 0.033
9,ISTPTHWSKLDPKTHKVNDLRKELESRALSSKGLKSQLIARLTKQLKVEE,-0.996 ± 0.059
10,ISTPTHWSKLDPKTMKVNDLRKELEGRALSSKGLKSQLIARLTKQLKVEE,0.089 ± 0.035
11,ISTPTHWSKLDPKTMKVNDLRKEEESRALSSKGLKSQLIARLTKQLKVEE,-0.665 ± 0.053
12,ISTPTHWSKLDPKTFKVNDLRKELESRALSSKGLKSQLIARLTKQLKVEE,-1.02 ± 0.092
13,ISTPTHWSKLDPKTMKVNDLRKELESRALNSKGLKSQLIARLTKQLKVEE,0.126 ± 0.055
14,ISFPTHWSKLDPKTMKVNDLRKELESRALSSKGLKSQLIARLTKQLKVEE,-0.121 ± 0.06
15,ISTPTHWSTLDPKTMKVNDLRKELESRALSSKGLKSQLIARLTKQLKVEE,-0.125 ± 0.055
16,ISTPTHWSKLDPKTMKVNDLRKEKESRALSSKGLKSQLIARLTKQLKVEE,-0.879 ± 0.056
17,ISTPTHWSKLDPKTMKVNDLRKELESRALSSKGLKSQLQARLTKQLKVEE,-0.102 ± 0.062
18,ISTPTHWSKLDPKTQKVNDLRKELESRALSSKGLKSQLIARLTKQLKVEE,-0.679 ± 0.049
19,ISTPTHWSKLDPKTMKVNDLYKELESRALSSKGLKSQLIARLTKQLKVEE,-0.256 ± 0.044
20,ISTPTHWSKLDPKTMKVNDLRKELESRALSSKGLKSQLIARLTKQLKVIE,-0.943 ± 0.19
21,ISTPTHWSKLDPKTMKVNDLRKELESRALSSKGLKSQLIPRLTKQLKVEE,-0.12 ± 0.041
22,ISTPTHQSKLDPKTMKVNDLRKELESRALSSKGLKSQLIARLTKQLKVEE,-0.279 ± 0.07
23,ISTPTHWSKLDPKTMKVNDLRKELESRALSSKTLKSQLIARLTKQLKVEE,-1.03 ± 0.055
24,ISTPTHWSKLDPKTSKVNDLRKELESRALSSKGLKSQLIARLTKQLKVEE,-0.75 ± 0.036
25,ISTPTHWSKLDPKTMKVNDLRKELESRALSSKGLKSQLIARLTKQLKQEE,-0.06 ± 0.042
26,ISTPTHWSKLDPKTMKVNDLRKELESRALSSKGLKSQLIARLEKQLKVEE,-0.117 ± 0.037
